For assay [1], the target named is soluble SIVmac239 Env SOSIP.664 trimer, wild type (SIVmac239). The assay is described as follows: cryo-EM 2-D class averages; SIVmac239 Env trimers affinity purified with PGT145, ~6 mg/ml diluted 3:1 into n-dodecyl-beta-D-maltoside, plunge frozen; ~62,000 particles.
Assay [2] concerns the target PGT145 (human IgG1), as the ligand of CD16. Put plainly: flow cytometry on cells. Conditions: read off a plot; for other: Binding (AUC): area under the PGT145 staining curve, parent: est. 12000; for response: parent: est. 540.

In turn, “soluble SIVmac239 Env SOSIP.664 trimer, wild type (complex)” yielded a stoichiometry N in assay [1] of 3.
As to SIVmac239 Env WT K179S, in assay [2], the other: Binding (AUC) amounted to 46000 and the response was 1500 gMFI.
SIVmac239 Env WT N171Q: in assay [2], the other: Binding (AUC) came out at 740 and the response came out at 220 gMFI.
Regarding SIVmac239 Env WT K180S, in assay [2], the other: Binding (AUC) is 260000 and the response is 6600 gMFI.
SIVmac239 Env WT R177A: in assay [2], the other: Binding (AUC) turned out to be 1300 and the response was 180 gMFI.
With SIVmac239 Env WT K181S, in assay [2], the other: Binding (AUC) was 11000 and the response turned out to be 450 gMFI.

The record behind these values is publication PMC6606807.
